According to PMC4249942 (Biochemistry, 2012):
Where a chain is given by its changes, count along the chain named. Numbers in names are those of the source.

B1: PerB (Caulobacter vibrioides) (protein)
chain: MSASLAIGGVVIIGGGGHAKVVIESLRACGETVAAIVDADPTRRAVLGVPVVGDDLALPMLREQGLSRLFVAIGDNRLRQKLGRKARDHGFSLVNAIHPSAVVSPSVRLGEGVAVMAGVAINADSWIGDLAIINTGAVVDHDCRLGAACHLGPASALAGGVSVGERAFLGVGARVIPGVTIGADTIVGAGGVVVRDLPDSVLAIGVPAKIKGDRS
B2: PerB (Caulobacter vibrioides; H141N) (protein)
chain: B1 chain with H141N
B3: PerB (Caulobacter vibrioides; D142N) (protein)
chain: B1 chain with D142N
B4: PerB (Caulobacter vibrioides; H141A) (protein)
chain: B1 chain with H141A

Columns and labels:
[1] = biological target: T1, PerB (Caulobacter vibrioides, UniProt O85353); assay: X-ray crystal structure, […] Å; type: binding
[2] = biological target: T1, PerB; assay: HPLC, ESI-MS and 1H NMR of the product; type: biochemical; settings: acetyl CoA 1 mM, HEPES pH 7.5, 10 mM MgCl2, room temperature
[3] = substrate: C[C@H]1O[C@H](OP(=O)(O)OP(=O)(O)OC[C@H]2O[C@@H](n3cnc4c(=O)[nH]c(N)nc43)[C@H](O)[C@@H]2O)[C@@H](O)[C@@H](O)[C@@H]1N; assay: discontinuous HPLC assay; type: biochemical, Caulobacter vibrioides; settings: pH 8.0, 25 °C, acetyl CoA co-substrate
[4] = substrate: CC(=O)SCCNC(=O)CCNC(=O)[C@H](O)C(C)(C)COP(=O)(O)OP(=O)(O)OC[C@H]1O[C@@H](n2cnc3c(N)ncnc32)[C@H](O)[C@@H]1OP(=O)(O)O; assay: discontinuous HPLC assay; type: biochemical, Caulobacter vibrioides; settings: pH 8.0, 25 °C, GDP-perosamine co-substrate

Row | Molecule | Km [3] | Km [4] | further results
1 | CC(C)(COP(=O)(O)OP(=O)(O)OC[C@H]1O[C@@H](n2cnc3c(N)ncnc32)[C@H](O)[C@@H]1OP(=O)(O)O)[C@@H](O)C(=O)NCCC(=O)NCCS [CoA] |  |  | X-ray crystal structure, 1.0 Å ([1]; with GDP-perosamine): The first was that of the enzyme with bound CoA and GDP-perosamine.
2 | CC(=O)N[C@H]1[C@H](O)[C@H](O)[C@@H](OP(=O)(O)OP(=O)(O)OC[C@H]2O[C@@H](n3cnc4c(=O)[nH]c(N)nc43)[C@H](O)[C@@H]2O)O[C@@H]1C [GDP-N-acetylperosamine] |  |  | X-ray crystal structure, 1.0 Å ([1]; with CoA, formed by turnover in the crystal): The enzyme turned over, and CoA and GDP-N-acetylperosamine were left bound in the active site.
3 | C[C@H]1O[C@H](OP(=O)(O)OP(=O)(O)OC[C@H]2O[C@@H](n3cnc4c(=O)[nH]c(N)nc43)[C@H](O)[C@@H]2O)C(O)CC1N (some centres unmarked) [GDP-3-deoxyperosamine] |  |  | HPLC, ESI-MS and 1H NMR of the product [2]: Using GDP-3-deoxyperosamine, we were able to, indeed, show that PerB produces an acetylated form
4 | B1 | 87 ± 11 µM | 150 ± 20 µM | 
5 | B2 | 150 ± 10 µM | 94 ± 17 µM | 
6 | B3 | 110 ± 10 µM | 59 ± 7 µM | 
7 | B4 | 200 ± 10 µM | 110 ± 10 µM | 
